Results: the supplement of paper PMC10724198
± gives the standard deviation of the averaged measurements.

Key:
Saccharomyces cerevisiae [1] = experiment: protein stability index of tFT-peptide fusion (C-terminal peptide) (PSI (0-1 scale)); higher = more stable (slower turnover); conditions: genetic background: wild type; temperature: 30 C
Saccharomyces cerevisiae [2] = experiment: as above
Method: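 MPS profiling in S. cerevisiae of the tFT-X12 degron library: putative degron peptides plus stable controls, 12 aa, fused to the C-terminus of a sfGFP-mCherry timer. Cells are FACS-sorted into 8 mCherry/sfGFP bins and deep-sequenced. PSI runs from 0 (unstable) to 1 (stable). Backgrounds are wild type, das1Δ and doa10Δ at 30 °C, and wild type, das1Δ, cdc34-1 and cdc53-1 at 37 °C; 2-3 technical replicates each.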

[3] = genetic background: cdc34-1, temperature: 37 C
[4] = genetic background: cdc53-1, temperature: 37 C
[5] = genetic background: das1 deletion, temperature: 30 C
[6] = genetic background: das1 deletion, temperature: 37 C
[7] = genetic background: doa10 deletion, temperature: 30 C
[8] = genetic background: wild type, temperature: 30 C
[9] = genetic background: wild type, temperature: 37 C
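Note: PSI is a weighted mean of sequencing reads over stability bins, variants kept only with over 10 reads, mCherry proximal and sfGFP distal, peptide attached via GGGS linker.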

LCWASLLIVYLP
protein stability index (Saccharomyces cerevisiae [1]): 0.392 ± 0.011
protein stability index (Saccharomyces cerevisiae [2]; [3]): 0.397 ± 0.014
protein stability index (Saccharomyces cerevisiae [2]; [4]): 0.4614 ± 0.0036
protein stability index (Saccharomyces cerevisiae [2]; [5]): 0.311 ± 0.03
protein stability index (Saccharomyces cerevisiae [2]; [6]): 0.50382 ± 0.0004
protein stability index (Saccharomyces cerevisiae [2]; [7]): 0.27 ± 0.017
protein stability index (Saccharomyces cerevisiae [2]; [8]): 0.278 ± 0.032
protein stability index (Saccharomyces cerevisiae [2]; [9]): 0.463 ± 0.0039

LEYCLATYLSAC
protein stability index (Saccharomyces cerevisiae [1]): 0.378 ± 0.0073
protein stability index (Saccharomyces cerevisiae [2]; [3]): 0.3382 ± 0.00047
protein stability index (Saccharomyces cerevisiae [2]; [4]): 0.435 ± 0.013
protein stability index (Saccharomyces cerevisiae [2]; [5]): 0.25 ± 0.035
protein stability index (Saccharomyces cerevisiae [2]; [6]): 0.43854 ± 0.00041
protein stability index (Saccharomyces cerevisiae [2]; [7]): 0.211 ± 0.0025
protein stability index (Saccharomyces cerevisiae [2]; [8]): 0.248 ± 0.016
protein stability index (Saccharomyces cerevisiae [2]; [9]): 0.4386 ± 0.00068

LFFSFLFLATRC
protein stability index (Saccharomyces cerevisiae [1]): 0.236 ± 0.037
protein stability index (Saccharomyces cerevisiae [2]; [3]): 0.248 ± 0.012
protein stability index (Saccharomyces cerevisiae [2]; [4]): 0.209 ± 0.018
protein stability index (Saccharomyces cerevisiae [2]; [5]): 0.254 ± 0.045
protein stability index (Saccharomyces cerevisiae [2]; [6]): 0.39184 ± 0.00039
protein stability index (Saccharomyces cerevisiae [2]; [7]): 0.2246 ± 0.00043
protein stability index (Saccharomyces cerevisiae [2]; [8]): 0.193 ± 0.019
protein stability index (Saccharomyces cerevisiae [2]; [9]): 0.311 ± 0.016

LFFVCSGVVFSF
protein stability index (Saccharomyces cerevisiae [1]): 0.507 ± 0.04
protein stability index (Saccharomyces cerevisiae [2]; [3]): 0.514 ± 0.052
protein stability index (Saccharomyces cerevisiae [2]; [4]): 0.5482 ± 0.0011
protein stability index (Saccharomyces cerevisiae [2]; [5]): 0.407 ± 0.03
protein stability index (Saccharomyces cerevisiae [2]; [6]): 0.5829 ± 0.0055
protein stability index (Saccharomyces cerevisiae [2]; [7]): 0.38 ± 0.01
protein stability index (Saccharomyces cerevisiae [2]; [8]): 0.384 ± 0.031
protein stability index (Saccharomyces cerevisiae [2]; [9]): 0.558 ± 0.011

LFGFLCVVMCCG
protein stability index (Saccharomyces cerevisiae [1]): 0.434 ± 0.028
protein stability index (Saccharomyces cerevisiae [2]; [3]): 0.533 ± 0.014
protein stability index (Saccharomyces cerevisiae [2]; [4]): 0.521 ± 0.0067
protein stability index (Saccharomyces cerevisiae [2]; [5]): 0.44 ± 0.02
protein stability index (Saccharomyces cerevisiae [2]; [6]): 0.511 ± 0.03
protein stability index (Saccharomyces cerevisiae [2]; [7]): 0.412 ± 0.023
protein stability index (Saccharomyces cerevisiae [2]; [8]): 0.4422 ± 0.00067
protein stability index (Saccharomyces cerevisiae [2]; [9]): 0.485 ± 0.034

LFLFFFLPPLLF
protein stability index (Saccharomyces cerevisiae [1]): 0.446 ± 0.028
protein stability index (Saccharomyces cerevisiae [2]; [3]): 0.4247 ± 0.0027
protein stability index (Saccharomyces cerevisiae [2]; [4]): 0.407 ± 0.0056
protein stability index (Saccharomyces cerevisiae [2]; [5]): 0.373 ± 0.025
protein stability index (Saccharomyces cerevisiae [2]; [6]): 0.484 ± 0.021
protein stability index (Saccharomyces cerevisiae [2]; [7]): 0.439 ± 0.018
protein stability index (Saccharomyces cerevisiae [2]; [8]): 0.366 ± 0.009
protein stability index (Saccharomyces cerevisiae [2]; [9]): 0.461 ± 0.026

LFLSFLLLYFRP
protein stability index (Saccharomyces cerevisiae [1]): 0.351 ± 0.039
protein stability index (Saccharomyces cerevisiae [2]; [3]): 0.269 ± 0.019
protein stability index (Saccharomyces cerevisiae [2]; [4]): 0.219 ± 0.022
protein stability index (Saccharomyces cerevisiae [2]; [5]): 0.311 ± 0.037
protein stability index (Saccharomyces cerevisiae [2]; [6]): 0.4223 ± 0.0015
protein stability index (Saccharomyces cerevisiae [2]; [7]): 0.439 ± 0.021
protein stability index (Saccharomyces cerevisiae [2]; [8]): 0.313 ± 0.015
protein stability index (Saccharomyces cerevisiae [2]; [9]): 0.402 ± 0.0086

LFMRGEDEMFSV
protein stability index (Saccharomyces cerevisiae [1]): 0.746 ± 0.018
protein stability index (Saccharomyces cerevisiae [2]; [3]): 0.722 ± 0.052
protein stability index (Saccharomyces cerevisiae [2]; [4]): 0.758 ± 0.024
protein stability index (Saccharomyces cerevisiae [2]; [5]): 0.658 ± 0.01
protein stability index (Saccharomyces cerevisiae [2]; [6]): 0.7826 ± 0.0013
protein stability index (Saccharomyces cerevisiae [2]; [7]): 0.668 ± 0.012
protein stability index (Saccharomyces cerevisiae [2]; [8]): 0.672 ± 0.022
protein stability index (Saccharomyces cerevisiae [2]; [9]): 0.766 ± 0.036

LFPLFTLIFVHL
protein stability index (Saccharomyces cerevisiae [1]): 0.1989 ± 0.00028
protein stability index (Saccharomyces cerevisiae [2]; [3]): 0.224 ± 0.016
protein stability index (Saccharomyces cerevisiae [2]; [4]): 0.212 ± 0.017
protein stability index (Saccharomyces cerevisiae [2]; [5]): 0.265 ± 0.023
protein stability index (Saccharomyces cerevisiae [2]; [6]): 0.4169 ± 0.0011
protein stability index (Saccharomyces cerevisiae [2]; [7]): 0.119 ± 0.025
protein stability index (Saccharomyces cerevisiae [2]; [8]): 0.115 ± 0.019
protein stability index (Saccharomyces cerevisiae [2]; [9]): 0.1696 ± 0.00078

LFTRSIRNLKSL
protein stability index (Saccharomyces cerevisiae [1]): 0.452 ± 0.033
protein stability index (Saccharomyces cerevisiae [2]; [3]): 0.653 ± 0.057
protein stability index (Saccharomyces cerevisiae [2]; [4]): 0.7269 ± 0.007
protein stability index (Saccharomyces cerevisiae [2]; [5]): 0.664 ± 0.0086
protein stability index (Saccharomyces cerevisiae [2]; [6]): 0.738 ± 0.02
protein stability index (Saccharomyces cerevisiae [2]; [7]): 0.303 ± 0.0033
protein stability index (Saccharomyces cerevisiae [2]; [8]): 0.291 ± 0.0074
protein stability index (Saccharomyces cerevisiae [2]; [9]): 0.4521 ± 0.0027

LFVFVISSSSFP
protein stability index (Saccharomyces cerevisiae [1]): 0.395 ± 0.04
protein stability index (Saccharomyces cerevisiae [2]; [3]): 0.442 ± 0.0068
protein stability index (Saccharomyces cerevisiae [2]; [4]): 0.539 ± 0.035
protein stability index (Saccharomyces cerevisiae [2]; [5]): 0.321 ± 0.025
protein stability index (Saccharomyces cerevisiae [2]; [6]): 0.553 ± 0.0059
protein stability index (Saccharomyces cerevisiae [2]; [7]): 0.291 ± 0.022
protein stability index (Saccharomyces cerevisiae [2]; [8]): 0.306 ± 0.025
protein stability index (Saccharomyces cerevisiae [2]; [9]): 0.503 ± 0.015

LFWCCVGLSVWR
protein stability index (Saccharomyces cerevisiae [1]): 0.43 ± 0.011
protein stability index (Saccharomyces cerevisiae [2]; [3]): 0.367 ± 0.063
protein stability index (Saccharomyces cerevisiae [2]; [4]): 0.474 ± 0.026
protein stability index (Saccharomyces cerevisiae [2]; [5]): 0.318 ± 0.022
protein stability index (Saccharomyces cerevisiae [2]; [6]): 0.5026 ± 0.0031
protein stability index (Saccharomyces cerevisiae [2]; [7]): 0.278 ± 0.0092
protein stability index (Saccharomyces cerevisiae [2]; [8]): 0.31 ± 0.016
protein stability index (Saccharomyces cerevisiae [2]; [9]): 0.494 ± 0.023

LFWPPCYLFFCL
protein stability index (Saccharomyces cerevisiae [1]): 0.389 ± 0.031
protein stability index (Saccharomyces cerevisiae [2]; [3]): 0.446 ± 0.034
protein stability index (Saccharomyces cerevisiae [2]; [4]): 0.508 ± 0.052
protein stability index (Saccharomyces cerevisiae [2]; [5]): 0.473 ± 0.039
protein stability index (Saccharomyces cerevisiae [2]; [6]): 0.677 ± 0.045
protein stability index (Saccharomyces cerevisiae [2]; [7]): 0.393 ± 0.03
protein stability index (Saccharomyces cerevisiae [2]; [8]): 0.324 ± 0.027
protein stability index (Saccharomyces cerevisiae [2]; [9]): 0.437 ± 0.024

LFWTLSKYLIIC
protein stability index (Saccharomyces cerevisiae [1]): 0.135 ± 0.079
protein stability index (Saccharomyces cerevisiae [2]; [3]): 0.284 ± 0.015
protein stability index (Saccharomyces cerevisiae [2]; [4]): 0.42 ± 0.024
protein stability index (Saccharomyces cerevisiae [2]; [5]): 0.34 ± 0.04
protein stability index (Saccharomyces cerevisiae [2]; [6]): 0.491 ± 0.011
protein stability index (Saccharomyces cerevisiae [2]; [7]): 0.0759 ± 0.0053
protein stability index (Saccharomyces cerevisiae [2]; [8]): 0.108 ± 0.013
protein stability index (Saccharomyces cerevisiae [2]; [9]): 0.159 ± 0.083

LGFFIFSFLILK
protein stability index (Saccharomyces cerevisiae [1]): 0.25 ± 0.015
protein stability index (Saccharomyces cerevisiae [2]; [3]): 0.0638 ± 0.017
protein stability index (Saccharomyces cerevisiae [2]; [4]): 0.0569 ± 0.025
protein stability index (Saccharomyces cerevisiae [2]; [5]): 0.189 ± 0.031
protein stability index (Saccharomyces cerevisiae [2]; [6]): 0.235 ± 0.011
protein stability index (Saccharomyces cerevisiae [2]; [7]): 0.263 ± 0.017
protein stability index (Saccharomyces cerevisiae [2]; [8]): 0.124 ± 0.036
protein stability index (Saccharomyces cerevisiae [2]; [9]): 0.221 ± 0.057

LGFHFFFTLIFF
protein stability index (Saccharomyces cerevisiae [1]): 0.381 ± 0.03
protein stability index (Saccharomyces cerevisiae [2]; [3]): 0.284 ± 0.054
protein stability index (Saccharomyces cerevisiae [2]; [4]): 0.274 ± 0.0087
protein stability index (Saccharomyces cerevisiae [2]; [5]): 0.279 ± 0.04
protein stability index (Saccharomyces cerevisiae [2]; [6]): 0.4 ± 0.031
protein stability index (Saccharomyces cerevisiae [2]; [7]): 0.4518 ± 0.0032
protein stability index (Saccharomyces cerevisiae [2]; [8]): 0.305 ± 0.039
protein stability index (Saccharomyces cerevisiae [2]; [9]): 0.37 ± 0.042

LGLLIFQWARVL
protein stability index (Saccharomyces cerevisiae [1]): 0.12 ± 0.035
protein stability index (Saccharomyces cerevisiae [2]; [3]): 0.302 ± 0.015
protein stability index (Saccharomyces cerevisiae [2]; [4]): 0.5 ± 0.0084
protein stability index (Saccharomyces cerevisiae [2]; [5]): 0.405 ± 0.026
protein stability index (Saccharomyces cerevisiae [2]; [6]): 0.553 ± 0.0056
protein stability index (Saccharomyces cerevisiae [2]; [7]): 0.0666 ± 0.012
protein stability index (Saccharomyces cerevisiae [2]; [8]): 0.0808 ± 0.016
protein stability index (Saccharomyces cerevisiae [2]; [9]): 0.092 ± 0.0037

LGVVVGGVRGVG
protein stability index (Saccharomyces cerevisiae [1]): 0.448 ± 0.045
protein stability index (Saccharomyces cerevisiae [2]; [3]): 0.43 ± 0.04
protein stability index (Saccharomyces cerevisiae [2]; [4]): 0.49 ± 0.0086
protein stability index (Saccharomyces cerevisiae [2]; [5]): 0.461 ± 0.012
protein stability index (Saccharomyces cerevisiae [2]; [6]): 0.505 ± 0.0054
protein stability index (Saccharomyces cerevisiae [2]; [7]): 0.467 ± 0.012
protein stability index (Saccharomyces cerevisiae [2]; [8]): 0.46 ± 0.025
protein stability index (Saccharomyces cerevisiae [2]; [9]): 0.4913 ± 0.0033

LHRLRFTLVQVS
protein stability index (Saccharomyces cerevisiae [1]): 0.223 ± 0.022
protein stability index (Saccharomyces cerevisiae [2]; [3]): 0.171 ± 0.0037
protein stability index (Saccharomyces cerevisiae [2]; [4]): 0.196 ± 0.036
protein stability index (Saccharomyces cerevisiae [2]; [5]): 0.228 ± 0.032
protein stability index (Saccharomyces cerevisiae [2]; [6]): 0.32664 ± 0.00013
protein stability index (Saccharomyces cerevisiae [2]; [7]): 0.127 ± 0.018
protein stability index (Saccharomyces cerevisiae [2]; [8]): 0.163 ± 0.021
protein stability index (Saccharomyces cerevisiae [2]; [9]): 0.2 ± 0.0028

LIAPSACNLFLF
protein stability index (Saccharomyces cerevisiae [1]): 0.412 ± 0.032
protein stability index (Saccharomyces cerevisiae [2]; [3]): 0.639 ± 0.04
protein stability index (Saccharomyces cerevisiae [2]; [4]): 0.7535 ± 0.0061
protein stability index (Saccharomyces cerevisiae [2]; [5]): 0.682 ± 0.015
protein stability index (Saccharomyces cerevisiae [2]; [6]): 0.7584 ± 0.0066
protein stability index (Saccharomyces cerevisiae [2]; [7]): 0.288 ± 0.0042
protein stability index (Saccharomyces cerevisiae [2]; [8]): 0.308 ± 0.018
protein stability index (Saccharomyces cerevisiae [2]; [9]): 0.5569 ± 0.005
